Nine molecules from patent publication US20250320302A1 (EVOTEC INTERNATIONAL, published 2025) can be followed below.

Where two headings read alike, the source gives them in different places.

Common to all, as to assay: cell-based or functional assay
The target of assay [1] is T1, human CD40 (human, UniProt P25942 21-277).
The target of assay [2] is human IFNλ receptor on HEK-Blue IFN-λ cells (human).
In assay [3] the target is T1, human CD40. The source holds these as a separate data set.
The target in assay [4] is T1, human CD40. The source holds these as a separate data set.
Assay [5] addresses T2, human type I IFN receptor on HEK-Blue IFN-α/β cells (human, UniProt P17181 28-557; P48551 27-515).
T2 sequence (looked up) 1: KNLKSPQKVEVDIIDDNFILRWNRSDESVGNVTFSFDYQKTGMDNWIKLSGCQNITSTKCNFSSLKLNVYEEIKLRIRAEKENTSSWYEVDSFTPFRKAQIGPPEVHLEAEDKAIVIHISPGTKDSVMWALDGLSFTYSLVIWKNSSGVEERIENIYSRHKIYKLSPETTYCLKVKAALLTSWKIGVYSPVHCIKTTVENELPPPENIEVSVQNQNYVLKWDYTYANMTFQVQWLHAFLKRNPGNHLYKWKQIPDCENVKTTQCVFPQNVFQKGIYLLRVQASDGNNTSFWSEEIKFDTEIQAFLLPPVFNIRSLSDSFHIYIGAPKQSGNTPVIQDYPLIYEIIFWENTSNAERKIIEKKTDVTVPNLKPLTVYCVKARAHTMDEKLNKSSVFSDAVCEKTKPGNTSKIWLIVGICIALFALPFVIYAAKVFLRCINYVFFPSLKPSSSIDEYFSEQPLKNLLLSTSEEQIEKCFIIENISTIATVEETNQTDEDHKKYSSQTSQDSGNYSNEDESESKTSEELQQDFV
T2 sequence (looked up) 2: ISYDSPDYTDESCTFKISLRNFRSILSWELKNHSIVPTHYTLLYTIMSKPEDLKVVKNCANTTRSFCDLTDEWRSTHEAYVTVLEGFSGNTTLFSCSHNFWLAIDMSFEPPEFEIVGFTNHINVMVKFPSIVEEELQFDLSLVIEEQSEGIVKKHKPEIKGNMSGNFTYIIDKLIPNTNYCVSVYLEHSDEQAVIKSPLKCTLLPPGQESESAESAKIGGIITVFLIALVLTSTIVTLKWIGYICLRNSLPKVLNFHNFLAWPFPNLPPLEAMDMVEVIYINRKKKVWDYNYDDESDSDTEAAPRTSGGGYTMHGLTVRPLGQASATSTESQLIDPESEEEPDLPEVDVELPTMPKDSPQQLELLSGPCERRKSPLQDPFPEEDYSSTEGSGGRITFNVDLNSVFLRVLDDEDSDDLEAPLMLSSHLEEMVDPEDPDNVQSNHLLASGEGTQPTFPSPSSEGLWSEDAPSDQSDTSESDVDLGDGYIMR

The target of assay [6] is human IFNγ receptor on HEK-Blue IFN-γ cells (human).

T1 sequence (P25942 21-277): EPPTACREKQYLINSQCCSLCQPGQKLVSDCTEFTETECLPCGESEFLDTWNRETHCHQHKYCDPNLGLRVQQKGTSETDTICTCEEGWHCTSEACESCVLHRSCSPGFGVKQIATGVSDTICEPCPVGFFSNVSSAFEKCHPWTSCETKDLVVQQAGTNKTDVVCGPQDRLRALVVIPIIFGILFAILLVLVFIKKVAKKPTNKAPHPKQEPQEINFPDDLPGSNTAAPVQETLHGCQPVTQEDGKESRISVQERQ

B1: IFA44 (antibody, human IgG2, kappa)
light: DIQMTQSPSSVSASVGDRVTITCRASQGIYSWLAWYQQKPGKAPNLLIYTASTLQSGVPSRFSGSGSGTDFTLTISSLQPEDFATYYCQQANIFPLTFGGGTKVEIKRTVAAPSVFIFPPSDEQLKSGTASVVCLLNNFYPREAKVQWKVDNALQSGNSQESVTEQDSKDSTYSLSSTLTLSKADYEKHKVYACEVTHQGLSSPVTKSFNRGECGGGGSGGGGSGGGGSGGGGSVPVARLHGALPDARGCHIAQFKSLSPQELQAFKRAKDALEESLLLKDCRCHSRLFPRTWDLRQLQVRERPMALEAELALTLKVLEATADTDPALVDVLDQPLHTLHHILSQFRACIQPQPTAGPRTRGRLHHWLYRLQEAPKKESPGCLEASVTFNLFRLLTRDLNCVASGDLCV
heavy: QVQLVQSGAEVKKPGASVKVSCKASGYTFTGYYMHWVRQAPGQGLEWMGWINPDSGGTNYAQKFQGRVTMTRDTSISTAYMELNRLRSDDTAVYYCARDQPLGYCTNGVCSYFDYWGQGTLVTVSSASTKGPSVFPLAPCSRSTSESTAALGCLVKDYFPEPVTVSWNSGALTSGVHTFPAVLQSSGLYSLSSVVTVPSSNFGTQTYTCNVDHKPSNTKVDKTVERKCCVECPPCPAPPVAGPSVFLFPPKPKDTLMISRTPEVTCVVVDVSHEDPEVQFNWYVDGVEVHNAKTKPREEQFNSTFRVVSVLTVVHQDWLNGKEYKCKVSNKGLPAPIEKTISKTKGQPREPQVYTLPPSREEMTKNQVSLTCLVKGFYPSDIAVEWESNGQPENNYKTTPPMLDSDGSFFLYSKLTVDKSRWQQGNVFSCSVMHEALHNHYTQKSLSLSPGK
For B1, the “CD40 EC50 (HEK-Blue CD40L NFκB-SEAP reporter cells)” value in assay [1] stood at 41.4 ng/mL. In addition, the “IFNλ EC50 (HEK-Blue IFNλ reporter cells)” value in assay [2] turned out to be 0.153 ng/mL.

B2: 3G5 (antibody, human IgG2, kappa)
heavy: QVQLVESGGGVVQPGKSLRLSCAASGFTFSSNGIHWVRQAPGKGLEWVAVIWSDGSNKFYADSVKGRFTISRDNSKNTLYLQMNSLRAEDTAVYYCARASGSGSYYNFFDYWGQGTLVTVSSASTKGPSVFPLAPCSRSTSESTAALGCLVKDYFPEPVTVSWNSGALTSGVHTFPAVLQSSGLYSLSSVVTVPSSNFGTQTYTCNVDHKPSNTKVDKTVERKCCVECPPCPAPPVAGPSVFLFPPKPKDTLMISRTPEVTCVVVDVSHEDPEVQFNWYVDGVEVHNAKTKPREEQFNSTFRVVSVLTVVHQDWLNGKEYKCKVSNKGLPAPIEKTISKTKGQPREPQVYTLPPSREEMTKNQVSLTCLVKGFYPSDIAVEWESNGQPENNYKTTPPMLDSDGSFFLYSKLTVDKSRWQQGNVFSCSVMHEALHNHYTQKSLSLSPG
light: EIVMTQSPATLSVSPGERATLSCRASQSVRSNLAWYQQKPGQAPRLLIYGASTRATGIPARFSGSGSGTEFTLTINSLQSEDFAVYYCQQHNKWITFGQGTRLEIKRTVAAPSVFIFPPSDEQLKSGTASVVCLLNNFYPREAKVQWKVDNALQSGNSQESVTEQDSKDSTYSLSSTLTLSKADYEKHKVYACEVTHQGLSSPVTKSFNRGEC
Turning to B2, the “CD40 EC50, mean (HEK-Blue CD40L NFκB-SEAP reporter cells)” value in assay [3] was 9.3 ng/mL.

B3: IFA45 (antibody, human IgG2, kappa)
heavy: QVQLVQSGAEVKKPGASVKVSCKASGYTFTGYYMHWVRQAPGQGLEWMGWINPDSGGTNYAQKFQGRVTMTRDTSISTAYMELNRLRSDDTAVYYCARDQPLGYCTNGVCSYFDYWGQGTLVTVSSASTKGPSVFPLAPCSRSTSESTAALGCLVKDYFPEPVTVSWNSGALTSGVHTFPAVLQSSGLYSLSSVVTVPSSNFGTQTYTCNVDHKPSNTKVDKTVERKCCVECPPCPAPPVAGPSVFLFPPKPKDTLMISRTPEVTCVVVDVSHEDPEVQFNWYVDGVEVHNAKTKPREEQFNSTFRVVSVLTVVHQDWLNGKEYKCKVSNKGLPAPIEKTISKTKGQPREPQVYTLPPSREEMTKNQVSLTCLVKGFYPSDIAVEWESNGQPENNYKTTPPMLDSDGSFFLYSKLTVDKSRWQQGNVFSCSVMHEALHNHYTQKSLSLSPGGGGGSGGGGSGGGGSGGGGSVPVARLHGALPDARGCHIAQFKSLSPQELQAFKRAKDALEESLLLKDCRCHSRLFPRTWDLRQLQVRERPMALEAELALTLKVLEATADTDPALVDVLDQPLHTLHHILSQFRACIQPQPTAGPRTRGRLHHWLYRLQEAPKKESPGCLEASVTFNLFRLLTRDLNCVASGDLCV
light: DIQMTQSPSSVSASVGDRVTITCRASQGIYSWLAWYQQKPGKAPNLLIYTASTLQSGVPSRFSGSGSGTDFTLTISSLQPEDFATYYCQQANIFPLTFGGGTKVEIKRTVAAPSVFIFPPSDEQLKSGTASVVCLLNNFYPREAKVQWKVDNALQSGNSQESVTEQDSKDSTYSLSSTLTLSKADYEKHKVYACEVTHQGLSSPVTKSFNRGEC
Turning to B3, the “CD40 EC50 (HEK-Blue CD40L NFκB-SEAP reporter cells)” value in assay [1] was found to be 25.8 ng/mL. Moreover, the “IFNλ EC50 (HEK-Blue IFNλ reporter cells)” value in assay [2] was under 0.001 ng/mL.

B4: CP870,893 (antibody, human IgG2, kappa)
heavy: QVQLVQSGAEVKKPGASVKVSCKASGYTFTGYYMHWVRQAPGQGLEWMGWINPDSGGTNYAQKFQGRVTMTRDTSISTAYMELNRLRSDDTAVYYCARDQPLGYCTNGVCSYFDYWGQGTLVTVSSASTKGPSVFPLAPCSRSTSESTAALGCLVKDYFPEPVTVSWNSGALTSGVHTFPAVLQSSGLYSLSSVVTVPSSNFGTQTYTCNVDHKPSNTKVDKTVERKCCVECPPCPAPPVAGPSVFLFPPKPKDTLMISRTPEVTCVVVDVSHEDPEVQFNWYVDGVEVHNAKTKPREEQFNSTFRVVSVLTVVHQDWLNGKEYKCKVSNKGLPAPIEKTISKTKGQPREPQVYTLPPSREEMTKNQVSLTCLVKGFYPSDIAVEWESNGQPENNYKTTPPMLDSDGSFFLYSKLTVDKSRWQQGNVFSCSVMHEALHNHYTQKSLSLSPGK
light: DIQMTQSPSSVSASVGDRVTITCRASQGIYSWLAWYQQKPGKAPNLLIYTASTLQSGVPSRFSGSGSGTDFTLTISSLQPEDFATYYCQQANIFPLTFGGGTKVEIKRTVAAPSVFIFPPSDEQLKSGTASVVCLLNNFYPREAKVQWKVDNALQSGNSQESVTEQDSKDSTYSLSSTLTLSKADYEKHKVYACEVTHQGLSSPVTKSFNRGEC
B4: in assay [3], the “CD40 EC50 (HEK-Blue CD40L NFκB-SEAP reporter cells)” value was 30 to 80 ng/mL; the “CD40 EC50, mean (HEK-Blue CD40L NFκB-SEAP reporter cells)” value was 48 ng/mL; the “CD40 EC50 in the experiment of FIG. 3 (HEK-Blue CD40L NFκB-SEAP reporter cells)” value turned out to be 57 ng/mL.

B5: IFA108 (antibody, human IgG2, kappa)
heavy: QVQLVESGGGVVQPGKSLRLSCAASGFTFSSNGIHWVRQAPGKGLEWVAVIWSDGSNKFYADSVKGRFTISRDNSKNTLYLQMNSLRAEDTAVYYCARASGSGSYYNFFDYWGQGTLVTVSSASTKGPSVFPLAPCSRSTSESTAALGCLVKDYFPEPVTVSWNSGALTSGVHTFPAVLQSSGLYSLSSVVTVPSSNFGTQTYTCNVDHKPSNTKVDKTVERKCCVECPPCPAPPVAGPSVFLFPPKPKDTLMISRTPEVTCVVVDVSHEDPEVQFNWYVDGVEVHNAKTKPREEQFNSTFRVVSVLTVVHQDWLNGKEYKCKVSNKGLPAPIEKTISKTKGQPREPQVYTLPPSREEMTKNQVSLTCLVKGFYPSDIAVEWESNGQPENNYKTTPPMLDSDGSFFLYSKLTVDKSRWQQGNVFSCSVMHEALHNHYTQKSLSLSPGAEAAAKEAAAKASYNLLGFLQRSSNFQCQKLLWQLNGRLEYCLKDRMNFDIPEEIKQLQQFQKEDAALTIYEMLQNIFAIFRQDSSSTGWNETIVENLLANVYHQINHLKTVLEEKLEKEDFTRGKLMSSLHLKRYYGRILHYLKAKEYSHCAWTIVRVEILRNFYFINRLTGYLRN
light: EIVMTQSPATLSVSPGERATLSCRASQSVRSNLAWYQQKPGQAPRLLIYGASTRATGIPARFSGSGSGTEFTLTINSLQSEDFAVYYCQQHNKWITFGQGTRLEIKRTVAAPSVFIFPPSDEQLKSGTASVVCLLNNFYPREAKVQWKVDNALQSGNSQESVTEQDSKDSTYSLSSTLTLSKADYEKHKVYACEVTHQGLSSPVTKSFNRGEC
On to B5, for which the “CD40 EC50 (HEK-Blue CD40L NFκB-SEAP reporter cells)” value in assay [4] turned out to be 37.3 ng/mL. Moreover, in assay [5], the “IFNβ EC50 (HEK-Blue IFN-α/β SEAP reporter cells)” value (shortened to “IFNβ EC50”) stood at 1.27 ng/mL.

B6: IFA109 (antibody, human IgG2, kappa)
heavy: QVQLVESGGGVVQPGKSLRLSCAASGFTFSSNGIHWVRQAPGKGLEWVAVIWSDGSNKFYADSVKGRFTISRDNSKNTLYLQMNSLRAEDTAVYYCARASGSGSYYNFFDYWGQGTLVTVSSASTKGPSVFPLAPCSRSTSESTAALGCLVKDYFPEPVTVSWNSGALTSGVHTFPAVLQSSGLYSLSSVVTVPSSNFGTQTYTCNVDHKPSNTKVDKTVERKCCVECPPCPAPPVAGPSVFLFPPKPKDTLMISRTPEVTCVVVDVSHEDPEVQFNWYVDGVEVHNAKTKPREEQFNSTFRVVSVLTVVHQDWLNGKEYKCKVSNKGLPAPIEKTISKTKGQPREPQVYTLPPSREEMTKNQVSLTCLVKGFYPSDIAVEWESNGQPENNYKTTPPMLDSDGSFFLYSKLTVDKSRWQQGNVFSCSVMHEALHNHYTQKSLSLSPGAEAAAKEAAAKASYNLLGFLQRSSNFQSQKLLWQLNGRLEYCLKDRMNFDIPEEIKQLQQFQKEDAALTIYEMLQNIFAIFRQDSSSTGWNETIVENLLANVYHQINHLKTVLEEKLEKEDFTRGKLMSSLHLKRYYGRILHYLKAKEYSHCAWTIVRVEILRNFYFINRLTGYLRN
light: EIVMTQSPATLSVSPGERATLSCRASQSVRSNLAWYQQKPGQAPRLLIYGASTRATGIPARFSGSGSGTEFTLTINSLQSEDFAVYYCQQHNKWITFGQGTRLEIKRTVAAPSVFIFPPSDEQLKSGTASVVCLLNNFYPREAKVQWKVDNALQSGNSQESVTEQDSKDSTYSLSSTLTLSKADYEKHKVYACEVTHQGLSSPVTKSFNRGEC
As for B6, in assay [4], the “CD40 EC50 (HEK-Blue CD40L NFκB-SEAP reporter cells)” value was 30 ng/mL. Besides, in assay [5], the “IFNβ EC50” value came out at 0.45 ng/mL.

B7: IFA42 (antibody, human IgG2, kappa)
light: DIQMTQSPSSVSASVGDRVTITCRASQGIYSWLAWYQQKPGKAPNLLIYTASTLQSGVPSRFSGSGSGTDFTLTISSLQPEDFATYYCQQANIFPLTFGGGTKVEIKRTVAAPSVFIFPPSDEQLKSGTASVVCLLNNFYPREAKVQWKVDNALQSGNSQESVTEQDSKDSTYSLSSTLTLSKADYEKHKVYACEVTHQGLSSPVTKSFNRGECGGGGSGGGGSGGGGSGGGGSQDPYVKEAENLKKYFNAGHSDVADNGTLFLGILKNWKEESDRKIMQSQIVSFYFKLFKNFKDDQSIQKSVETIKEDMNVKFFNSNKKKRDDFEKLTNYSVTDLNVQRKAIHELIQVMAELSPAAKTGKRKRSQMLFRGRRASQ
heavy: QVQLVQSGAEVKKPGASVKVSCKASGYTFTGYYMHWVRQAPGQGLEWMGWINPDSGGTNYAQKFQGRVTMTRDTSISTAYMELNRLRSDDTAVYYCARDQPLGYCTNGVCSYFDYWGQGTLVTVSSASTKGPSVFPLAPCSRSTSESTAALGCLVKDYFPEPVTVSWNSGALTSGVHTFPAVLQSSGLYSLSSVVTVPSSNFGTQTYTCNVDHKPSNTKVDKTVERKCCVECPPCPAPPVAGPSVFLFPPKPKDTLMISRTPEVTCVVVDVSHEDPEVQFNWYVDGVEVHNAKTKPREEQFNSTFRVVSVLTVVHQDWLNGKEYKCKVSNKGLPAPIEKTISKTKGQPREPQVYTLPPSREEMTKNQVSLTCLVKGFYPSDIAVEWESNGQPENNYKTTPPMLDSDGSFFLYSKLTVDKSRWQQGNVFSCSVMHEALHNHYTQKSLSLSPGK
Consider B7, for which the “CD40 EC50 (HEK-Blue CD40L NFκB-SEAP reporter cells)” value in assay [1] amounted to 65.6 ng/mL. In assay [6], the “IFNγ EC50 (HEK-Blue IFNγ reporter cells)” value was 15.4 ng/mL.

B8: IFA106 (antibody, human IgG2, kappa)
heavy: QVQLVESGGGVVQPGKSLRLSCAASGFTFSSNGIHWVRQAPGKGLEWVAVIWSDGSNKFYADSVKGRFTISRDNSKNTLYLQMNSLRAEDTAVYYCARASGSGSYYNFFDYWGQGTLVTVSSASTKGPSVFPLAPCSRSTSESTAALGCLVKDYFPEPVTVSWNSGALTSGVHTFPAVLQSSGLYSLSSVVTVPSSNFGTQTYTCNVDHKPSNTKVDKTVERKCCVECPPCPAPPVAGPSVFLFPPKPKDTLMISRTPEVTCVVVDVSHEDPEVQFNWYVDGVEVHNAKTKPREEQFNSTFRVVSVLTVVHQDWLNGKEYKCKVSNKGLPAPIEKTISKTKGQPREPQVYTLPPSREEMTKNQVSLTCLVKGFYPSDIAVEWESNGQPENNYKTTPPMLDSDGSFFLYSKLTVDKSRWQQGNVFSCSVMHEALHNHYTQKSLSLSPGPAPASYNLLGFLQRSSNFQCQKLLWQLNGRLEYCLKDRMNFDIPEEIKQLQQFQKEDAALTIYEMLQNIFAIFRQDSSSTGWNETIVENLLANVYHQINHLKTVLEEKLEKEDFTRGKLMSSLHLKRYYGRILHYLKAKEYSHCAWTIVRVEILRNFYFINRLTGYLRN
light: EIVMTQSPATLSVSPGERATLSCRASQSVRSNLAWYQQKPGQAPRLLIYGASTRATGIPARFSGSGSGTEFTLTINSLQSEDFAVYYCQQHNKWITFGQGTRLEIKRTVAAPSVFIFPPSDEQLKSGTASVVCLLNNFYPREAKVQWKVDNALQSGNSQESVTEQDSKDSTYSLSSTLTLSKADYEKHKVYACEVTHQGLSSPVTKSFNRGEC
In the case of B8, the “CD40 EC50 (HEK-Blue CD40L NFκB-SEAP reporter cells)” value in assay [4] worked out at 190 ng/mL. In addition, in assay [5], the “IFNβ EC50” value worked out at 10.3 ng/mL.

B9: IFA107 (antibody, human IgG2, kappa)
heavy: QVQLVESGGGVVQPGKSLRLSCAASGFTFSSNGIHWVRQAPGKGLEWVAVIWSDGSNKFYADSVKGRFTISRDNSKNTLYLQMNSLRAEDTAVYYCARASGSGSYYNFFDYWGQGTLVTVSSASTKGPSVFPLAPCSRSTSESTAALGCLVKDYFPEPVTVSWNSGALTSGVHTFPAVLQSSGLYSLSSVVTVPSSNFGTQTYTCNVDHKPSNTKVDKTVERKCCVECPPCPAPPVAGPSVFLFPPKPKDTLMISRTPEVTCVVVDVSHEDPEVQFNWYVDGVEVHNAKTKPREEQFNSTFRVVSVLTVVHQDWLNGKEYKCKVSNKGLPAPIEKTISKTKGQPREPQVYTLPPSREEMTKNQVSLTCLVKGFYPSDIAVEWESNGQPENNYKTTPPMLDSDGSFFLYSKLTVDKSRWQQGNVFSCSVMHEALHNHYTQKSLSLSPGPAPASYNLLGFLQRSSNFQSQKLLWQLNGRLEYCLKDRMNFDIPEEIKQLQQFQKEDAALTIYEMLQNIFAIFRQDSSSTGWNETIVENLLANVYHQINHLKTVLEEKLEKEDFTRGKLMSSLHLKRYYGRILHYLKAKEYSHCAWTIVRVEILRNFYFINRLTGYLRN
light: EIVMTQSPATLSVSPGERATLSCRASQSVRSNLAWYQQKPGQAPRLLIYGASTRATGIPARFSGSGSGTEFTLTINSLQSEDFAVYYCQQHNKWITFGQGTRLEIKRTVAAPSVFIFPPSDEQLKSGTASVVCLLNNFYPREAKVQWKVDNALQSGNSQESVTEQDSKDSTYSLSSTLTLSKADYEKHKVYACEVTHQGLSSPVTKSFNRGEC
For the molecule B9, the “CD40 EC50 (HEK-Blue CD40L NFκB-SEAP reporter cells)” value in assay [4] came to 142 ng/mL. Also, the “IFNβ EC50” value in assay [5] was 2.03 ng/mL.
